The test concerns the target Light-Harvesting Complex II (LHCII) (spinach). Kind of test: native gel or EMSA. Background: A gel shift assay detects complexes by their altered migration in electrophoresis.

As usually defined, the stoichiometry N is a count of units in the complex or per binding partner. For Light-Harvesting Complex II (LHCII), the stoichiometry N was determined as 3.

(Values after doi:10.1101/609255.)
